Here are results for one substance from article PMC10284548.

Assay [1] addresses AsLOV2. The assay can be described thus: single-molecule force spectroscopy (dual-beam optical tweezers); constant load of 11 or 16 pN, dark; AsLOV2 and Zdk2 on one chain joined by (GGS)42, tethered by DNA handles between two beads; PBS, 1 mM TCEP, pH 7.4.
Assay [2] addresses AsLOV2. Kind of assay: single-molecule force spectroscopy (dual-beam optical tweezers); constant load of 11 or 16 pN under 488-nm light (laser intensity 3 and 30%, pooled); AsLOV2 and Zdk2 on one chain joined by (GGS)42; PBS, 1 mM TCEP, pH 7.4.
Assay [3] has as its target AsLOV2(V416L). The assay can be described thus: single-molecule force spectroscopy (dual-beam optical tweezers); jump experiments between 0 and 20.5 ± 1 pN to obtain unbinding and rebinding lifetimes; AsLOV2 and Zdk2 on one chain joined by (GGS)42; PBS, 1 mM TCEP, pH 7.4.
Assay [4] deals with AsLOV2. The description is as above.
In assay [5] the target is AsLOV2(V416L). Kind of assay: single-molecule force spectroscopy (dual-beam optical tweezers); constant velocity (force-extension) experiments, 200 and 500 nm/s; AsLOV2 and Zdk2 on one chain joined by (GGS)42, tethered by DNA handles between two beads; PBS, 1 mM TCEP, pH 7.4, oxygen scavenger; dark.
The target in assay [6] is AsLOV2. Described as above.

In the case of Zdk2 (designed binder), in the assay with AsLOV2 [1], the average lifetime of the bound state at 11 pN, without light is 174 s; the average lifetime of the bound state at 16 pN, without light was found to be 74 s; the percent of experiments at 11 pN without dissociation within 9 min worked out at 30%. In the assay with AsLOV2 [2], this substance registered an average lifetime of the bound state at 11 pN, with 488-nm light of 47 s and an average lifetime of the bound state at 16 pN, with 488-nm light of 45 s. For the same substance, in the assay with AsLOV2(V416L) [3], the average lifetime of the peptide-bound state under force is 0.18 s and the rebinding time at zero force was found to be 0.44 s. In addition, in the assay with AsLOV2 [4], the average lifetime of the peptide-bound state under force stood at 0.56 s and the rebinding time at zero force was 0.13 s. For the same substance, in the assay with AsLOV2(V416L) [5], the unbinding force turned out to be 22 pN. In the assay with AsLOV2 [6], this substance had an unbinding force of 24 pN.
